From US20240124607A1 (Merck Sharp & Dohme, published 2024)
Residue numbers refer to the chain shown, from its start. Blank lines part the entries; values can stand above or below the binder they belong to.

Key:
[1] = target: T1, Human CEACAM6 (human, UniProt P40199 35-320, limits assumed); assay: SPR, 37C, pH 7.4
T1 sequence (looked up): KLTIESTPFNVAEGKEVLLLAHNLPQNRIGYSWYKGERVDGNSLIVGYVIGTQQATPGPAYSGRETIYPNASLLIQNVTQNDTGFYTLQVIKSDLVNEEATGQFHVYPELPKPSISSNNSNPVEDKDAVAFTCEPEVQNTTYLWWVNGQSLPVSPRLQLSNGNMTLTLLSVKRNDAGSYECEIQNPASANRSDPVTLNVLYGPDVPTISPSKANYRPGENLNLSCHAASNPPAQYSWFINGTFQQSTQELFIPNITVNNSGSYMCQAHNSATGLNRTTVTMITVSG
Description: To determine the affinity and cross-reactivity of CEACAM5 TriNKET molecules, AB0411, AB0466, or AB0621 TriNKETs were captured using an anti-human Fc capture antibody (Cytiva, #BR100839) immobilized onto a Biacore CM5 standard surface sensor chip following manufacturer instructions. Human or cynomolgus CEACAM5 were titrated over captured AB0411, AB0466, and AB0621 as 2-fold serial dilutions starting from 300 nM. Association was monitored for 300 sec and dissociation was monitored for 600 sec. The assay was run at 37° C. at pH 7.4 and 6.0. The surface of the CM5 chip was regenerated with 10 mM glycine pH 1.5 for 20 sec at 100 μL/min.
Binding to human and cynomolgus CEACAM1, 6, and 8 was assessed by SPR using the same protocol as for CEACAM5 but using up to 600 and 1200 nM for titration of each protein. There were no detectable binding signals at these concentrations for AB0621. In contrast, reproducible weak binding signals were detected for AB0411 and AB0466, but these two TriNKETs also bound to different epitope(s) on the N-terminus of CEACAM5. Typical weak binding sensorgrams for AB0411 and AB0466 against human CEACAM1 and 6 indicated weak but notable signals compared to AB0621. […]

[2] = target: T2, human CEACAM6 on Ba/F3 cells (human, UniProt P40199 35-320); assay: flow cytometry on Ba/F3 cells expressing human CEACAM6, fold over background (FOB), 5-fold dilutions from 1600 nM
T2 construct: whole, on cells
T2 sequence (looked up): T1 sequence (looked up)
Description: (§1) To examine the binding specificity of the TriNKETs to CEACAM5 compared to other CEACAM family members, Ba/F3 cells were engineered to express one of human CEACAM1, CEACAM6, CEACAM8, or cynomolgus CEACAM5. CEACAM5 TriNKETs were evaluated by flow cytometry starting at 1600 nM followed by 7 5-fold dilutions.

[3] = target: T3, human CEACAM5 on cells (human, UniProt P06731 35-685); assay: flow cytometry, BxPC-3 cells
T3 construct: tumour cell lines with endogenous CEACAM5, or B16F10 engineered to express hCEACAM5; also called CEACAM5 on MKN-45, HPAF-II, SK-CO-1, LoVo, BxPC-3, Kato-III, LS-174T, ZR-75-30; hCEACAM5-B16F10
T3 sequence: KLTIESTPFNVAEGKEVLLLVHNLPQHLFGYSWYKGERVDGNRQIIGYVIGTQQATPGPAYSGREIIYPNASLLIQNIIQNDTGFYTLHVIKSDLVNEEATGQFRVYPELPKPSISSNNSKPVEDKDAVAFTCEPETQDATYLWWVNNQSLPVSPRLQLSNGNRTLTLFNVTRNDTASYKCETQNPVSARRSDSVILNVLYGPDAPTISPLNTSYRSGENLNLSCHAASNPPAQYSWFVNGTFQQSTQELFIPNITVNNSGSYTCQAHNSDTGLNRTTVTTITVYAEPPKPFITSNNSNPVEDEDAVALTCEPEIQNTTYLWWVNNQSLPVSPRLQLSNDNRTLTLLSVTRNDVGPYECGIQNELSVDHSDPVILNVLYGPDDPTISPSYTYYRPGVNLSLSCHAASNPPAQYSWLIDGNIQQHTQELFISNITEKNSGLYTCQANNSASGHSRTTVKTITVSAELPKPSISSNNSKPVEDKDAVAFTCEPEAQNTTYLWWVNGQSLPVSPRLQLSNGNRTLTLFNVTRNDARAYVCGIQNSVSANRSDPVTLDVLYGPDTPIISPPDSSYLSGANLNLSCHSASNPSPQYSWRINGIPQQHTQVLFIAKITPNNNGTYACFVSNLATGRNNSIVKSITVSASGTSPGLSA

[4] = target: T3, human CEACAM5 on cells; assay: flow cytometry, SK-CO-1 cells
[5] = target: T3, human CEACAM5 on cells; assay: flow cytometry, Kato-III cells
[6] = target: T4, human CEACAM1 on Ba/F3 cells (human, UniProt P13688 35-526); assay: flow cytometry on Ba/F3 cells expressing human CEACAM1, fold over background (FOB), 5-fold dilutions from 1600 nM
T4 construct: whole, on cells
T4 sequence (looked up): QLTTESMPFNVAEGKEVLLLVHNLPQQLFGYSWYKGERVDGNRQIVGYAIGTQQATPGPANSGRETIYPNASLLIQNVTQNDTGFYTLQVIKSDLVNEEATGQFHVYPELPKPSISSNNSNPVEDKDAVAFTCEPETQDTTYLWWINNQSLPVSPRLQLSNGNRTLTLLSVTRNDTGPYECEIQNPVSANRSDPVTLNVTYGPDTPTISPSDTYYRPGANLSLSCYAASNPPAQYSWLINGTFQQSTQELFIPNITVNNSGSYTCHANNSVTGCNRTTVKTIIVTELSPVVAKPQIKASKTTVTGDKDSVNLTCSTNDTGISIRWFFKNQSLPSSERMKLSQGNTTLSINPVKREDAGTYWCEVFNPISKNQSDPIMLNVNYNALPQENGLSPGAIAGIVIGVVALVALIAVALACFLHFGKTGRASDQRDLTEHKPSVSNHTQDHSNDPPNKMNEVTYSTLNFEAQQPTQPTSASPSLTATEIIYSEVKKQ
Description: as §1

- binding result [2]: no binding (tested: 1600 nM)
B1: AB0466 F3' CEACAM5 TriNKET (bispecific antibody, human IgG1, kappa)
chain: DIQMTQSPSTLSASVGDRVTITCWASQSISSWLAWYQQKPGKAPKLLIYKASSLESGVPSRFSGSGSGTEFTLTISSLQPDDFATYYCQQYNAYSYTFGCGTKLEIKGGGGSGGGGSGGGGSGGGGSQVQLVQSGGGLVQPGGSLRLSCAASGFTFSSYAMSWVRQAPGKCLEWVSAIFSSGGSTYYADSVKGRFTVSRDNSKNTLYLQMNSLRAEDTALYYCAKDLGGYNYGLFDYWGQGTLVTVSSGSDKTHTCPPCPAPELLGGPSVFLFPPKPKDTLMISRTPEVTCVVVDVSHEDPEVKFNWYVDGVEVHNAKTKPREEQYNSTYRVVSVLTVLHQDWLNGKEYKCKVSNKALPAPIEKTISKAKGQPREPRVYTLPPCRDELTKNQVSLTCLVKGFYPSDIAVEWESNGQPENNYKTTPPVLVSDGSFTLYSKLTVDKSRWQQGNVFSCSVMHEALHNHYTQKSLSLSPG
heavy: EVQLVESGGGLVKPGGSLRLSCAASGFTFSSYSMNWVRQAPGKGLEWVSSISSSSSYIYYADSVKGRFTISRDNAKNSLYLQMNSLRAEDTAVYYCARGAPIGAAAGWFDPWGQGTLVTVSSASTKGPSVFPLAPSSKSTSGGTAALGCLVKDYFPEPVTVSWNSGALTSGVHTFPAVLQSSGLYSLSSVVTVPSSSLGTQTYICNVNHKPSNTKVDKKVEPKSCDKTHTCPPCPAPELLGGPSVFLFPPKPKDTLMISRTPEVTCVVVDVSHEDPEVKFNWYVDGVEVHNAKTKPREEQYNSTYRVVSVLTVLHQDWLNGKEYKCKVSNKALPAPIEKTISKAKGQPREPQVCTLPPSRDELTENQVSLTCLVKGFYPSDIAVEWESNGQPENNYKTTPPVLDSDGSFFLYSWLTVDKSRWQQGNVFSCSVMHEALHNHYTQKSLSLSPG
light: DIQMTQSPSSVSASVGDRVTITCRASQGISSWLAWYQQKPGKAPKLLIYAASSLQSGVPSRFSGSGSGTDFTLTISSLQPEDFATYYCQQGVSFPRTFGGGTKVEIKRTVAAPSVFIFPPSDEQLKSGTASVVCLLNNFYPREAKVQWKVDNALQSGNSQESVTEQDSKDSTYSLSSTLTLSKADYEKHKVYACEVTHQGLSSPVTKSFNRGEC
- binding result [1]: no binding (tested: up to 600 and 1200 nM)

- EC50 [3]: 4.28 nM
- Max FOB [3]: 19 fold over background
- EC50 [4]: 8.67 nM
- Max FOB [4]: 37 fold over background
- EC50 [5]: 1.17 nM
- Max FOB [5]: 5 fold over background
B2: AB0411 F3' CEACAM5 TriNKET (bispecific antibody, human IgG1, kappa)
chain: DIQLTQSPATLSVSPGERATLSCRASQSVSSSYLAWYQQKPGQAPRLLIYGASSRATGIPDRFSGSGSGTDFTLTISRLEPEDFAVYYCQQYNNWPLTFGCGTKVEIKGGGGSGGGGSGGGGSGGGGSQVQLVQSGGGLVQPGGSLRLSCAASGFTFTSYAMSWVRQAPGKCLEWVSAISGTGDSTFYADSVKGRFTFSRDNSKNTLYLQMNSLRAEDTAVYYCAKDLGWLQYGLFDYWGQGTLVTVSSGSDKTHTCPPCPAPELLGGPSVFLFPPKPKDTLMISRTPEVTCVVVDVSHEDPEVKFNWYVDGVEVHNAKTKPREEQYNSTYRVVSVLTVLHQDWLNGKEYKCKVSNKALPAPIEKTISKAKGQPREPRVYTLPPCRDELTKNQVSLTCLVKGFYPSDIAVEWESNGQPENNYKTTPPVLVSDGSFTLYSKLTVDKSRWQQGNVFSCSVMHEALHNHYTQKSLSLSPG
heavy: B1 heavy
light: B1 light

- binding result [6]: no binding (tested: 1600 nM)
- binding result [2]: no binding (tested: 1600 nM)
B3: AB0621 F3' CEACAM5 TriNKET (bispecific antibody, human IgG1, kappa)
chain: DIVMTQSPDSLAVSLGERATINCKSSHSLLYGNFQNNYLAWYQQKPGQPPKLLIYWASTRESGVPDRFSGSGSGTDFTLTISSLQAEDVAVYYCQQYYSYPYTFGCGTKLEIKGGGGSGGGGSGGGGSGGGGSQVQLVQSGAEVKKPGASVKVSCKASGYTFTAYTIHWVRQAPGQCLEWMGYINPSSGYTEYNQKFKDRTTLTADTSISTAYMELSRLRSDDTAVYYCTREGGLLWFDYWGQGTLVTVSSGSDKTHTCPPCPAPELLGGPSVFLFPPKPKDTLMISRTPEVTCVVVDVSHEDPEVKFNWYVDGVEVHNAKTKPREEQYNSTYRVVSVLTVLHQDWLNGKEYKCKVSNKALPAPIEKTISKAKGQPREPRVYTLPPCRDELTKNQVSLTCLVKGFYPSDIAVEWESNGQPENNYKTTPPVLVSDGSFTLYSKLTVDKSRWQQGNVFSCSVMHEALHNHYTQKSLSLSPG
heavy: B1 heavy
light: B1 light
- binding result [1]: no binding (tested: up to 600 and 1200 nM)

- EC50 [3]: 30.5 nM
- Max FOB [3]: 12 fold over background
- binding result [6]: no binding (tested: 1600 nM)
- binding result [2]: no binding (tested: 1600 nM)
- EC50 [4]: 104 nM
- Max FOB [4]: 42 fold over background
- EC50 [5]: 13.3 nM
- Max FOB [5]: 4 fold over background
B4: AB0264 F3' CEACAM5 TriNKET (bispecific antibody, human IgG1, kappa)
chain: B3 chain with S210P
heavy: B1 heavy
light: B1 light
- binding result [1]: no binding (tested: up to 600 and 1200 nM)
